The source of these data is paper PMC11055865, “Mechanism of DNA unwinding by MCM8-9 in complex with HROB” (Nature Communications, 2023).

Sequences and labels used below:
B1: HROB-L405D (natural protein, human, UniProt Q8N3J3-4 1-646, looked up)
chain: MACSLQKLFAVEEEFEDEDFLSAVEDAENRFTGSLPVNAGRLRPVSSRPQETVQAQSSRLLLLHPTAPSEALGLPDLDLCLPASSTPSADSRPSCIGAAPLRPVSTSSSWIGNQRRVTVTEVLREPARPQSSALHPLLTFESQQQQVGGFEGPEQDEFDKVLASMELEEPGMELECGVSSEAIPILPAQQREGSVLAKKARVVDLSGSCQKGPVPAIHKAGIMSAQDESLDPVIQCRTPRPPLRPGAVGHLPVPTALTVPTQQLHWEVCPQRSPVQALQPLQAARGTIQSSPQNRFPCQPFQSPSSWLSGKAHLPRPRTPNSSCSTPSRTSSGLFPRIPLQPQAPVSSIGSPVGTPKGPQGALQTPIVTNHLVQLVTAASRTPQQPTHPSTRAKTRRFPGPAGIDPHQQSGRSLEDIMVSAPQTPTHGALAKFQTEIVASSQASVEEDFGRGPWLTMKSTLGLDERDPSCFLCTYSIVMVLRKAALKQLPRNKVPNMAVMIKSLTRSTMDASVVFKDPTGEMQGTVHRLLLETCQNELKPGSVLLLKQIGVFSPSLRNHYLNVTPNNLVHIYSPDSGDGSFLKPSQPFPKDSGSFQHDVAAKPEEGFRTAQNLEAEASPEEELPEADDLDGLLSELPEDFFCGTSS
notes: HROB, human; numbers count on: isoform 1 (Q8N3J3-1); not shown: FLAG, C-terminal, kept
B2: MCM8-9 complex (FLAG-tagged MCM8 and MBP-tagged MCM9), wild type (complex)
chain 1: MNGEYRGRGFGRGRFQSWKRGRGGGNFSGKWREREHRPDLSKTTGKRTSEQTPQFLLSTKTPQSMQSTLDRFIPYKGWKLYFSEVYSDSSPLIEKIQAFEKFFTRHIDLYDKDEIERKGSILVDFKELTEGGEVTNLIPDIATELRDAPEKTLACMGLAIHQVLTKDLERHAAELQAQEGLSNDGETMVNVPHIHARVYNYEPLTQLKNVRANYYGKYIALRGTVVRVSNIKPLCTKMAFLCAACGEIQSFPLPDGKYSLPTKCPVPVCRGRSFTALRSSPLTVTMDWQSIKIQELMSDDQREAGRIPRTIECELVHDLVDSCVPGDTVTITGIVKVSNAEEGSRNKNDKCMFLLYIEANSISNSKGQKTKSSEDGCKHGMLMEFSLKDLYAIQEIQAEENLFKLIVNSLCPVIFGHELVKAGLALALFGGSQKYADDKNRIPIRGDPHILVVGDPGLGKSQMLQAACNVAPRGVYVCGNTTTTSGLTVTLSKDSSSGDFALEAGALVLGDQGICGIDEFDKMGNQHQALLEAMEQQSISLAKAGVVCSLPARTSIIAAANPVGGHYNKAKTVSENLKMGSALLSRFDLVFILLDTPNEHHDHLLSEHVIAIRAGKQRTISSATVARMNSQDSNTSVLEVVSEKPLSERLKVVPGETIDPIPHQLLRKYIGYARQYVYPRLSTEAARVLQDFYLELRKQSQRLNSSPITTRQLESLIRLTEARARLELREEATKEDAEDIVEIMKYSMLGTYSDEFGNLDFERSQHGSGMSNRSTAKRFISALNNVAERTYNNIFQFHQLRQIAKELNIQVADFENFIGSLNDQGYLLKKGPKVYQLQTM
chain 2: not shown
notes: MCM8, human; vector pFB-FLAG-MCM8; MCM9, human; vector pFB-MBP-MCM9; Major species is a heterodimer; tetramers and hexamers are also present; also called MCM8-9 heterodimer; dimer-rich MCM8-9; source: MBP tag not cleaved; for the amylose pull-down captured from Sf9 lysate on amylose resin and washed; not shown: FLAG, N-terminal, kept; MBP, N-terminal, kept

In series [1] the target is B2. Description: pull-down; MBP-MCM9/FLAG-MCM8 (or pMCM8-9, with or without λ-phosphatase treatment on the resin) immobilized on amylose resin from Sf9 lysate and washed; 1 µg wild type or mutant HROB in 50 mM Tris-HCl pH 7.5, 3 mM EDTA, 100 mM NaCl, 1 h at 4 °C; maltose elution, western blotting. Conditions: both partners purified.
Series [2] concerns the molecule itself. Nature of the series: mass photometry; protein alone in solution, no DNA; 50-200 nM final protein in 50 mM Tris-HCl pH 7.5, 100 mM NaCl; oligomeric state of MCM8-9 unchanged with ATP-γ-S.

As for B1, in series [1], the binding result is recorded as “binds”.

As to B2, in series [2], the binding result is “binds”.
